From publication PMC12999518 (Nature Structural & Molecular Biology, 2026)

T1: Sea3 (yeast (endogenous, TB50 background), UniProt Q03897 1-1148)
T1 sequence (looked up): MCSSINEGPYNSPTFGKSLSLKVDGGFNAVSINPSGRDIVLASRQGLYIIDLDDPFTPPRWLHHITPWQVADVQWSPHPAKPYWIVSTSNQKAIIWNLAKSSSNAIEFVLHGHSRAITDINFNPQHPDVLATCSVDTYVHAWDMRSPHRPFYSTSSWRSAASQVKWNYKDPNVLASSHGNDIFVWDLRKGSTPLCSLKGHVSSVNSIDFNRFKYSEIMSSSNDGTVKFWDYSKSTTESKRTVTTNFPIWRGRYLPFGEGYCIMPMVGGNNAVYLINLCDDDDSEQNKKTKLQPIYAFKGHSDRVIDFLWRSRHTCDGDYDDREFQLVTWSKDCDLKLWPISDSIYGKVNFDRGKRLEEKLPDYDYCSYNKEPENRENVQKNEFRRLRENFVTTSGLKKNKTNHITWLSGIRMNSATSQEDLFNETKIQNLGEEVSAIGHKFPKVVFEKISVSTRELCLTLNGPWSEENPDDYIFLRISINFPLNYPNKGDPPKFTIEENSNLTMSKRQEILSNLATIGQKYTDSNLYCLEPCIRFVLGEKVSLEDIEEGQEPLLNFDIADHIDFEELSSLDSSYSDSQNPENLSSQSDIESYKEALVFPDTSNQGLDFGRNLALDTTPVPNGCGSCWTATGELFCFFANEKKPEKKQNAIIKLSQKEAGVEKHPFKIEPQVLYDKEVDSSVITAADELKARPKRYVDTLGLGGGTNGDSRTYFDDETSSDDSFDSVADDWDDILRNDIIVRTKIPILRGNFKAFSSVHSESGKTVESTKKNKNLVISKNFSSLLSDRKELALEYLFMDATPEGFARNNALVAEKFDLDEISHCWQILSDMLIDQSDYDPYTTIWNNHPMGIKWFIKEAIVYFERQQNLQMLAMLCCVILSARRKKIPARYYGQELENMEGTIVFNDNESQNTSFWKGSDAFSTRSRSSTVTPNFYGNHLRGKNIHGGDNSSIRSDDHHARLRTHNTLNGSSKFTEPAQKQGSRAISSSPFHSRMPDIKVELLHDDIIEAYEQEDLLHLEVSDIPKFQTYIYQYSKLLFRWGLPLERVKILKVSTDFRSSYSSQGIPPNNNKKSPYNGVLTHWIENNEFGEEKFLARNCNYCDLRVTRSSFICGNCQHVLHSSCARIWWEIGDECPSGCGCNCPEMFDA

B1: Gtr1 (natural protein, yeast, UniProt Q00582 1-310, looked up)
chain: MSSNNRKKLLLMGRSGSGKSSMRSIIFSNYSAFDTRRLGATIDVEHSHLRFLGNMTLNLWDCGGQDVFMENYFTKQKDHIFQMVQVLIHVFDVESTEVLKDIEIFAKALKQLRKYSPDAKIFVLLHKMDLVQLDKREELFQIMMKNLSETSSEFGFPNLIGFPTSIWDESLYKAWSQIVCSLIPNMSNHQSNLKKFKEIMNALEIILFERTTFLVICSSNGENSNENHDSSDNNNVLLDPKRFEKISNIMKNFKQSCTKLKSGFKTLILNNNIYVSELSSNMVCFIVLKDMNIPQELVLENIKKAKEFFQ
B2: Gtr2 (natural protein, yeast, UniProt P53290 1-341, looked up)
chain: MSLEATDSKAMVLLMGVRRCGKSSICKVVFHNMQPLDTLYLESTSNPSLEHFSTLIDLAVMELPGQLNYFEPSYDSERLFKSVGALVYVIDSQDEYINAITNLAMIIEYAYKVNPSINIEVLIHKVDGLSEDFKVDAQRDIMQRTGEELLELGLDGVQVSFYLTSIFDHSIYEAFSRIVQKLIPELSFLENMLDNLIQHSKIEKAFLFDVNSKIYVSTDSNPVDIQMYEVCSEFIDVTIDLFDLYKAPVLRNSQKSSDKDNVINPRNELQNVSQLANGVIIYLRQMIRGLALVAIIRPNGTDMESCLTVADYNIDIFKKGLEDIWANARASQAKNSIEDDV
B3: Npr2 (natural protein, yeast (endogenous, TB50 background), UniProt P39923 1-615, looked up)
chain: MLSYFQGFVPIHTIFYSVFHPTEGSKIKYEFPPNNLKNHGINFNTFKNYIIPKPILCHKLITFKYGTYRIVCYPVTINSPIYARNFFSFNFVFVFPYDCETSPYEPAITRLGKMFKVLEEQNQLLSKSERDPVFFDLKVLENSTTTPSTAGPSSTPNPSSNTTPTHPTSEKDTKDMRSSRYSDLIKDLGLPQSAFSIQDLLMRIFQDLNNYSECLIPIDEGNAVDIKIFPLLRPPTTCVSLEDVPLSSVNLKKIIDVNWDPTMMSIVPYIDGLNSIAKISKLSNSDPGLVIECIRHLIYYKCVTLSDIFQFSNIYAPSSLIRNFLTDPLMASDCQSYVTFPEVSKISNLPLNKSLGSGDQDSPSFSVRRKSKSSSIPSNPDSRTTSFSSTSRVSQNSSLNSSFSSIYKDWRQSQTSCSSSNIHVINNRNRFLPTRSCLFDLYRSLSQGQTLKTWYESKYMILKENNIDIRRFITFGLEKRIIYRCYSFPVMINAGSREPKEMTPIITKDLVNNDKLLEKRNHNHLLSATGSRNTAQSGNLKPERPSKVSFEMQRVSSLATGKSTMPKLSDEEEGILEESIRNAETFDKICVLLSKPKLEVESYLNELGEFKVINS

Assays:
Experiment in all cases: cryo-EM structure
Gtr2 = biological target: B2
Npr2 = biological target: B3
Sea1 = Sea1 (yeast (endogenous, TB50 background), UniProt P47170 1-1584)
Sequence of Sea1 (P47170 whole entry): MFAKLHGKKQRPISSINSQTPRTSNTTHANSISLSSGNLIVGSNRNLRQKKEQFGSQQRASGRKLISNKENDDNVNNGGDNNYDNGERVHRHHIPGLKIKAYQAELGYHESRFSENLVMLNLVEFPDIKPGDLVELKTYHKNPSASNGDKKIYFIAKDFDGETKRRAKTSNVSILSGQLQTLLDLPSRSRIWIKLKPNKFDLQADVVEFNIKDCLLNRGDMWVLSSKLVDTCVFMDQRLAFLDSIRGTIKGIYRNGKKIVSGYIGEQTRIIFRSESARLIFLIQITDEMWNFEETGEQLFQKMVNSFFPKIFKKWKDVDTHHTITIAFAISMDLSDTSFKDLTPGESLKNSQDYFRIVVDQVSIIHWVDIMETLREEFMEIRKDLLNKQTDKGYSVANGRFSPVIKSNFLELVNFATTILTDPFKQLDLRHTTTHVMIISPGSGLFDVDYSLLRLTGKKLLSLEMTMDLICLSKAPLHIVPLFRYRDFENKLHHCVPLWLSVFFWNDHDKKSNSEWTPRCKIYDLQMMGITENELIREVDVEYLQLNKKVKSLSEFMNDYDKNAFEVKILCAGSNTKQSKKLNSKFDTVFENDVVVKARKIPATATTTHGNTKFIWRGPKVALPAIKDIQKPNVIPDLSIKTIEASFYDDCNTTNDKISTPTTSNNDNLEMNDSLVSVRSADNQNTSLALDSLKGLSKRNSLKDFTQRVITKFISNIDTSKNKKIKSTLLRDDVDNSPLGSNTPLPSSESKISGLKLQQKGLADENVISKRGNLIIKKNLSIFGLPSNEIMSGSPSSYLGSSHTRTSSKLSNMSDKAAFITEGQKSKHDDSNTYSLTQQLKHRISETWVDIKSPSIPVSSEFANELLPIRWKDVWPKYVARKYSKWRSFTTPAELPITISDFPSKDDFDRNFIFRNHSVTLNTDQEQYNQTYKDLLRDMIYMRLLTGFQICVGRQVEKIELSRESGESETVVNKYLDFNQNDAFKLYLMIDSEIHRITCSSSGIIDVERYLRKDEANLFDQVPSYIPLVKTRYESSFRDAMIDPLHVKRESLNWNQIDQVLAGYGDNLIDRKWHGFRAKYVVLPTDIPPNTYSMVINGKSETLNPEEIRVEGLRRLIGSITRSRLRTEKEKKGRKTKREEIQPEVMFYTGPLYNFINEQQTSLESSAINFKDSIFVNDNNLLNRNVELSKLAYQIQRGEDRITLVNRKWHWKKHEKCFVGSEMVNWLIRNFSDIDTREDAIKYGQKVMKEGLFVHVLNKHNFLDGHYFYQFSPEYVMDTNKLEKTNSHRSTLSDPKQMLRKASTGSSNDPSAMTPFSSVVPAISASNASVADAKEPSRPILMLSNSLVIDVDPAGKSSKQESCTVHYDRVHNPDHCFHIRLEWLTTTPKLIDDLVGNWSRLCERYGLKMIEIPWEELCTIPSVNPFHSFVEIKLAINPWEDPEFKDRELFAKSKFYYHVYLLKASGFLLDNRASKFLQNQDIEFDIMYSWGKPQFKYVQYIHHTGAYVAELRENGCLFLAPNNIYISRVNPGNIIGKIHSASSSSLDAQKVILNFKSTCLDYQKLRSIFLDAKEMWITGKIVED

Sea3 = biological target: T1, Sea3

B1: binds (Gtr2); binds (Npr2).

B2: binds (Sea1).

B3: binds (Sea3).
